Test results taken from the nanobody polyreactivity screen of Harvey et al. (2022).

Assay: yeast display, Sf9 membrane polyspecificity reagent, FACS + sequencing; frameworks hold sequencing errors
How it was run: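 In a synthetic yeast display library (Saccharomyces cerevisiae BJ5465), nanobody expression was induced with galactose for 36–48 hours. FACS gates were set low and high (top ~1%) using anti-HA fluorescence for expression and streptavidin fluorescence for binding of the Sf9 membrane reagent. Each polyreactivity label is drawn from the gate of origin.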

Row | Sequence | polyreactivity (PSR sort gate)
1 | QVQHVESGGGLVQAGGSLRLTCAASGSTFVNYAMGWYRQAPGKERELVAAITANGGRTYYADSVKGRFTISRDNAKNTVYLQMNSLKPEDTAVYYCNTESNLYRRRRNYWGQGTQVTVSS | low polyreactivity
2 | QVQLVESGGGLVQAGGSLRLSCAASGFTFWTYAMGWYRQAPGKERELVAAIDSGGSTYYADSVKGRFTITRDNAKNTVYLQMNSLKPEDTAVYYCNAGPSVTSGYDYDYWGQGTQVTVSS | low polyreactivity
3 | QVQLVESGGGLVQAGGSLRLSCAASGRTFDDYAMGWSRQAPGTERELVAAITSGGSTYYADSVKGRFTISRDNAKNTVYLQMNSLKPEDTAVYYCNARSPRPYAYRPYDYWGQGTQVTVSS | low polyreactivity
4 | QVQLVESGGGLVQAGGSLRLICAASGSILGTYAMGWYRQAPGKERELVAAITLSTDGTYYADSVKGRFTISRDNAKNTVYLQMNCLKPEDTAVYYFAAPWNWRWVTQWGYYVRADYYWGQGSQVTVSS | low polyreactivity
5 | QVQLVESGGGLVQAGGSLRLSCAASGNTFKDYTMGWFRQAPGTERELVASINSGGSTNYADSVKGRFTISRDNAKNTVYLQMNSLKPEDTAVYDCAKRAWSDYNPIDYWGQGTQVTVSS | low polyreactivity
6 | QVQLVESGGGLVQAGVSLRLSCAASGGTLSNYAMGWYRQAPGKERELVAAITYRGGSTYYADSVKGRFTISRDNAKNTVYLQMNSQKPEDTAVYSCAAPGFKPFSFDSWGQGTQVTVSS | low polyreactivity
7 | QVQLVESGGGLVQAGGSLRLSCAASGLTFYSYAMGWYRQAPGKERELVAAITSSDGSTYYADSVKGRFTISRDNAKNTVYLQMNSLKPEDTAVYYCNKDDNSYGLNYWGQGTQVTVSS | low polyreactivity
8 | QVQLVESGGGLVQAGGSLRLTCAASGRIFRYYAMGWYRQAPGKERELVATISRGGSTTYADSVKGRFTISRDNAKNTVYLQMNSLKPEDTAVYYCDARFGSTYDYWGQGTQVTVSS | low polyreactivity
9 | QVQLVESGGGLVQAGGSLRLSCAASGLNFRRNAMRWYRQAPGKERELVAVIDRGGRTNYADSVKGRFTISRDNAKTTVYLQMNSLKPEDTAVYYCAKRYASTSGYWGQGTQVTVSS | high polyreactivity
10 | QVQLVESGGGLVQAGGSLRLSCAASGSTFTPYGMGWYRQAPGKERELVAAITVSGGRTYYADSVKGRFTISRDNAKNTVYLQMNSLKPEDTAVYYCAAVYLRGDGEYDSWGQGTQVTVSS | low polyreactivity
11 | QVQLVESGGGLVQAGGSLRLTCAASARTFFRNTMGSYRQATGKERELVATISWSGGSTNSADSVKGRFTISRDNAKNTVSLQMNSLKPEDTAVYYCAAVDYDTSIYDRPGGFDYWGQGTQVTVSS | low polyreactivity
12 | QVQLVESGGGLVQAGGSLRLSCAASGFTFRWYAMGWYRQAPGKERELVAAIDWSGTTTYADSVKGRFTISRDNAKNTVYLQMNSLKPEDTAVYYCAAVFRRSGYASPYDYWGQGTQVTVSS | high polyreactivity
13 | QVQLVESGGGLVQAGVSLRLSCAASGRTFVHYTMGWSRQSPGKERELVATISTSGGSTSYADSVKGRFTISRDNAKNTVYLQMNSLKPEDTAVYYCAARWYFPDRVKYDYWGQGTQVSVSS | low polyreactivity
14 | QVQLVESGGGLVQAGGSLRLSCAASGRTSGKNAMGSYRQATRKEREMVAAISSSGGSTYYADSVKGRFTISRDNAKNTVYLQMNSLKPEDTAVYYCAAKYFRKYSQIGPDMYYWGQGTQVTVSS | high polyreactivity
15 | QVQLVESGGGLVQAGGSLRLSCAASGFTFTPNAMGWYRQAPGKERELVAITWSDGNTYYADSVKGRFTISRDNAKNTVYLQMNSLKPEDTAVYYCNADSTQGAWWPWLNDYWGQGTQVTVSS | high polyreactivity
16 | QVQLVESGGGLVQEGGSLRLSCAASGFIFGWYGMGWYRQPPGKDSELFAAITWSGVRTYYADSVKGRFTISRDNAKNTVYLQMISLKPEDTAVYYCARAGGYVGRGYKDQDGRGDYWGQGTQVTVSS | high polyreactivity
17 | QVQLVESGGGLVQAGGSLRLSCAASGRTFGGNAMGWYRQAPGKERELVAAISARAGSTYYADSVKGRFTISRDNAKNTVYLQMNSLKPEDTAVYYCAARRYAYTGGYWGQGTQVTVSS | high polyreactivity
18 | QVQLVESGGGLVQAGGSLRLSCAASGSTFGVYTMGWYRQAPGKERELVAAITKSGGSTYYADSVKGRFTISRDNAKNTVYLQMNSLKPEDTAVYYCAADATSPLTWFDYWGQGTQVTVSS | low polyreactivity
19 | QVQLVESGGGLVQAGGSLRLSCAASGSISKINAMGWYRQAPGKERELVAAINTGDSTYYADSVKGRFTISRDNAKNTVYLQMNSLKPEDTAVYYCAAEGSPNGYDYWGQGTQVTVSS | low polyreactivity
20 | QVQLVESGGGLVQAGGSLRLSCAASRFIFGKYAMGWYRQAPGKEREFVAAITRSGGSTYYADSVKGRFTISRDNAKNTVYLQMNSLKPEDTAVYYCAAYSLKYYNGYDYWGQGTQVTVSS | high polyreactivity
21 | QVQLVESGGGLVQAGGSLRLSCAASVSIFWLYAMGWYRQAPGKERELVAAITYSGGRTYADSVKGRFTISRDNAKNTVYVQMISLKPEDTEVIYCATVFRYRKSWGYDYWGQGTQVTVSS | low polyreactivity
22 | QVQLEDSGGGLVQAGGSLRLSCAASVSTFSRNAMGWYRQAPGKEREFVAAISWSGSSTYYADSVKGRFTISRDNAKNTVFLQMNSLKPEDTAVYYCAARETWYPYYWMGYWGQGTQVTVSS | high polyreactivity

Row | Sequence | polyreactivity (PSR sort gate)
23 | QVQLVESGGGLVQAGGSLRLSCAASGRTSVRYAMGWYRQAPGKERELVAAISWSGGSTYYADSVKGRFTISRDNAKNTVYLQMNSLKPEDTAVYDCNAQHARGYYYWGQGTQVTVSS | low polyreactivity
24 | QVQLVESGGGLVQAGGSLRLSCAASGSTFPRYAMGWYRQAPGKERELVAAISSGGSTYYADSVKGRFTISRDNAKNTVYLQMNSLKPEDTAVYYCNARRSRSRYDYWGQGTQVTVSS | high polyreactivity
25 | QVQLVESGGGLVQAGGSLRLSCAASGSTYEYNAMGWYRQAPGKERELVAGISSGGSTYYADSVKGRFTISRDNAKNTVYLQMNSLKPEDTAVYYCATSEASVATWDRYTELDYWGQGSQVTVSS | low polyreactivity
26 | QVQLVESGGGLVQAGRSLRLSCAASVSIFAGYAMGWYRQAPGKERELVAGISYSGGRTYYADSVKGRFTISRDNAKNTVYLQMNSLKPEDTAVYYCNARFVRVRKGYGYWGLGTQVTVSS | high polyreactivity
27 | QVQLVESGGGLVQAGGSLRLSCAASGRTFGDYAMGWYRQAPGKERELVAAITIGGSTYYADSVKGRFTISRDNAKNTVYLQMNSLKPEDTAVYYCAATTYSIPSRYDSWGQGTQVTVSS | low polyreactivity
28 | QDQLVESGGGLVQAGGTLRLSCAASGYTFDTYALGWYRQAPGKERELVAAISYTGGSTYYADSVKGRFTISRDNAKNTVYLQMNSLKPEDTAVYYCAADFNGYPGGDLYVGYDYWGLGTQVTVSS | low polyreactivity
29 | QDQLVESGGVLVQAGGSLRLSCAASGFIFNRYAMGWYRQAPWKERELVAANTRTGSTNYADSVKGRFTISRYNAKYTVYLQMSCLKPEDTAVFYCAAVYLSLGRPYYTFEYWGQGTQVTVSS | high polyreactivity
30 | QVQLVESGGGLVQAGGSLRLSCAASGRTFGVYMGWYRQAPGKERELVAVISSGDSTNYADSVKGRFTISRDNAKNTVYLLMNSLKPEDTAVYYCNAYGSDRLTLDDYWGQGTQVSVSS | low polyreactivity
31 | QVQLVESGGGLLQAGGSLRLRSPASGSIFEEYAMGWYRQAPGKERELVAAITRRGGNTYYADSVKGRFTISRDNAKNTVYLQMTSLKPEDTAVYYCAAPLGNYSWQYEYWGPGTQVTVSS | low polyreactivity
32 | QVQLVESGGGLVQAGGSLRLSCAASGIIFPYYAMGWYRQATGKERELVAAITRGGITYYADSVKGRFTISRDNAKNTVYLQMNSLKPEDTAVYYCAARLRGSYDYWGQGTQVTVSS | high polyreactivity
33 | QVQLVESGGGLVQAGGSLRLSCAASGSTFDPYAMGWYRQAPGKEREFVADIDSSVGSTFYADSVKGRFTISRDNAKNTVYLQMNSLKPEDTAVYYCAAVYESYYYEYYYWGQGTQVTVSS | high polyreactivity
34 | QVQLVESGGGLVQAGGSLRFSCAASGGIFRLYGMGWYREAPGKERELVAAIRQSGGRTYYADSVKGRFTISRDNAKNTVYLQMNSLKPEDTAVYYCAADLLYRSSGTVRSDYSRYDYWGQGTQVTVSS | low polyreactivity
35 | QVQLVESGGGLVQAGGSLRLSCAASGSIFYHNAMGWYRQAPGKERELVAAISSSGGNTYYADSVKGRFTISRDNAKNTVYLQLNSLKPEDTAVYYCNKGFSYRSGRGYWGQGTQVTVSS | high polyreactivity
36 | QVQLVESGGGLVQAGGSLRLSCAASGLTFDYNAMGWYRQAPGKERELVAAITSGGSTKYADSVKGRFTISRDNAKNTVYLQMNSLKPEDTAVYYCAATAYVWYYLSYTYYYWGQGTQVTVSS | low polyreactivity
37 | QVQLVESGGGLVQAGGSLRLSCAASGSTFGSYAMGWYRQAPGKERELVAAITQIGGSTYYADSVKGRFTISRDNAKNTVYLQMNSLKPEDTEVYYCAVTAGRGGYPQGGVTRGYWGQGTQVTVSS | high polyreactivity
38 | QVQLVESGGGLVQAGGSLRLSCAASGSTFAYNALGWYRQAPGKERELVAAIDINDGNTYYADSVKGRFTISRDTAKNTVNLQINSLKPEDTAVYYCAAEYFYPYYGAMDYWGQGTQVTVSS | low polyreactivity
39 | QVQLVESGGGLVQAGGSLRLSCAASGRIFTKYAMGWYRQAPGKERELVAAISRGGSNTYYADSVKGRFTISRDIAKNTVYLQMNSLKPEDTAVYYCNKPYSYVGWPGTGPDPKTVYYWGQGTQVTVSS | high polyreactivity
40 | QVQLVETGGGLVQAGGSLRLSCAASGSIFTRYVMGWYRQAPGKERELVAAISRSSGRTYYADSVKGRFTISRDNAKNTVYLQMNSLKPEDTAVYYCAAYAVESYKYDYWGQGTQVTVSS | high polyreactivity
41 | QVQLVESGGGIVQAGGSLRLSCAASGFTFGDYVMGWYRPAPGNERELVAAITTSGTRTSYADSVKGRFTISRDNAKNTVFLQMNSLKPEDTAVYYCAAEHTNYYYFWQAHYYWGPGTQVTVSS | high polyreactivity
42 | QVQLVESGGGLVQAGGSLRLSCAASGSTFGFYAMGWYRQAPGKERELVAAISRGGSTNYADSVKGRFTISRDNAKNTVYLQMNSLKPEDTAVYYCAKAYHATSDYWGQGTQVTVSS | low polyreactivity
43 | QVQLVESGGGLVQAGGSLRLSCAASGRIFVKYGMGWYRQAPGKERELVAAISWTGGSTYYADSVKGRFTISRDNAKNTVYLQMNSLKPEDTAVYYCAAESWFKYDYWGQGTQVTVSS | low polyreactivity
